First the molecules themselves.
B1: 366_E01 (antibody, V domains shown)
VH: EVQLLESGGGLVQPGGSLRLSCAASGFTFDSYGMNWVRQAPGKGLEWVSNINYNGGYKSYADSVKGRFTISRDNSKNTLYLQMNSLRAEDTAVYYCARGANWHDTHLDYWGQGTLVTVSS
VL: DIQMTQSPSSLSASVGDRVTITCRASQSILTYLNWYQQKPGKAPKLLIYAATSRASGVPSRFSGSGSGTDFTLTISSLQPEDFATYYCQQSYSSPLTFGGGTKVEIK
notes: Group III
B2: 366_G12 (antibody, V domains shown)
VH: B1 VH with D30S, N35H, N50G, G55S, S59G
VL: B1 VL with T31S, A55H, S93N, S94T
notes: Group III
B3: 366_G02 (antibody, V domains shown)
VH: B1 VH with N35H, N50S, K58T, G99A, N101T
VL: B1 VL with A55H, Y92D, S93D, S94N
notes: Group II
B4: 366_F02 (antibody, V domains shown)
VH: B1 VH with D30S, N50G, G55S, K58T, S59G
VL: B1 VL with L47V, A55H, S93D, S94N
notes: Group III
B5: 368_A02 (antibody, V domains shown)
VH: B1 VH with S49A, N50G, G99A
VL: B1 VL with L30I, T31S, L33V, L47V, S93D, S94T
notes: Group I
B6: 367_F06 (antibody, V domains shown)
VH: B1 VH with D30S, N50S, G55S, K58T, G99A, H106A
VL: B1 VL with L30S, T31S, L33V, A51V, S93D
notes: Group I
B7: 366_E07 (antibody, V domains shown)
VH: B1 VH with N35H, S49A, N50G, K58T, G99A, N101T, H106A
VL: B1 VL with L47V, A55H, Y92D, S93N
notes: Group II
B8: 367_B09 (antibody, V domains shown)
VH: B1 VH with N35H, S49A, N50S, K58T, G99A, H106A
VL: B1 VL with T31S, L33V, L47V, S93E, S94N
notes: Group I
B9: 367_C09 (antibody, V domains shown)
VH: B1 VH with N35H, S49A, N50S, K58T, G99A
VL: B1 VL with T31S, L33V, L47V, A55H, S93N, S94T
notes: Group I
B10: 367_E10 (antibody, V domains shown)
VH: B1 VH with D30S, N35H, N50S, K58T, S59G, G99A, N101T
VL: B1 VL with T31S, L33V, S93E, S94L
notes: Group II
B11: 368_A06 (antibody, V domains shown)
VH: B1 VH with G33S, N35H, S49A, N50G, G55S, S59G, G99A
VL: B1 VL with T31S, L33V, A55H, S93N
notes: Group I
B12: 368_A12 (antibody, V domains shown)
VH: B1 VH with G33S, N35H, N50S, G55S, S59G, G99A, H106A
VL: B1 VL with L47V, S93D
notes: Group I
B13: 367_C06 (antibody, V domains shown)
VH: B1 VH with G33S, N35H, S49A, N50S, G99A, N101T
VL: B1 VL with L47V, R54L, A55H, S93D, S94T
notes: Group II
B14: 367_C12 (antibody, V domains shown)
VH: B1 VH with D30S, N35H, N50G, K58T, G99A, N101T
VL: B1 VL with T31S, L33V, A51T, A55H, S93E
notes: Group II
B15: 366_G06 (antibody, V domains shown)
VH: B1 VH with D30S, N35H, S49A, N50S, K58T, S59G, G99A
VL: B1 VL with L30V, T31S, L33V, L47V, S93D, S94N
notes: Group I
B16: 366_F10 (antibody, V domains shown)
VH: B1 VH with G33S, S49A, N50G, K58T, S59G, G99A
VL: B1 VL with L30V, T31S, L47V, S93D, S94T
notes: Group I
B17: 367_F10 (antibody, V domains shown)
VH: B1 VH with N50G, G55S, K58T, G99A, N101T
VL: B1 VL with S93D, S94T
notes: Group II
B18: 367_A06 (antibody, V domains shown)
VH: B1 VH with S49A, N50S, S59G
VL: B1 VL with T31S, L33V, A55H, S93D, S94T
notes: Group III
B19: 366_E08 (antibody, V domains shown)
VH: B1 VH with D30S, S31D, G33S, K58T
VL: B1 VL with L30V, A55H, S94N
notes: Group III
B20: 367_H08 (antibody, V domains shown)
VH: B1 VH with N50S, K58T, G99A, N101T
VL: B1 VL with L33V, A55H, S93N, S94L
notes: Group II
B21: 366_H01 (antibody, V domains shown)
VH: B1 VH with S31D, G33S, N35H, S49A, K58T, G99A, N101T
VL: B1 VL with L47V, A51T, A55H, S93E
notes: Group II
B22: 367_F08 (antibody, V domains shown)
VH: B1 VH with D30S, N35H, N50S, G55S, K58T, G99A, N101T
VL: B1 VL with T31S, L33V, L47V, Y92N, S93E, S94L
notes: Group II
B23: 367_G11 (antibody, V domains shown)
VH: B1 VH with D30S, N35H, S49A, N50S, K58T, G99A, N101T
VL: B1 VL with A55H, Y92D, S93D
notes: Group II
B24: 367_G03 (antibody, V domains shown)
VH: B1 VH with G33S, N35H, S49A, K58T, G99A, N101T
VL: B1 VL with L30V, T31S, L33V, L47V, A55H, S93D, S94L
notes: Group II
B25: 367_B11 (antibody, V domains shown)
VH: B1 VH with D30S, S31D, G33S, N35H, S49A, G55S, K58T, G99A, H106A
VL: B1 VL with T31S, L47V, S94T
notes: Group I
B26: 367_D11 (antibody, V domains shown)
VH: B1 VH with N35H, G99A, H106A
VL: B1 VL with L30I, T31S, S93D
notes: Group I
B27: 367_H01 (antibody, V domains shown)
VH: B1 VH with N50G, G99A, H106A
VL: B1 VL with L47V, S93D, S94N
notes: Group I
B28: 367_A03 (antibody, V domains shown)
VH: B1 VH with S49A, N50G, K58T, H106A
VL: B1 VL with L33V, A51T, A55H, S93D
notes: Group III
B29: 367_E08 (antibody, V domains shown)
VH: B1 VH with D30S, S31D, S49A, N50S, K58T, G99A, N101T
VL: B1 VL with T31S, A51T, S93D, S94N
notes: Group II
B30: 366_H04 (antibody, V domains shown)
VH: B1 VH
VL: B1 VL
notes: Group III
B31: 367_A08 (antibody, V domains shown)
VH: B1 VH with S49A, N50G, K58T
VL: B1 VL with A51V, S93D
notes: Group III

Drawing on US20210380703A1 (RIGEL PHARMACEUTICALS, published 2021), this text covers optical density for 31 molecules.

Where a chain is given by its changes, count along the chain named.
Note: test concentration or dose not given here.

Chain of mouse ACVR2A (P27038 20-135 limits assumed): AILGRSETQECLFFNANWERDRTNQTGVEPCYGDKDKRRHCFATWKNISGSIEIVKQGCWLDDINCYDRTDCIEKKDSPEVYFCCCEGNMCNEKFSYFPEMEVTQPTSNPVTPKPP

The first assay addresses mouse ACVR2A (mouse, UniProt P27038 20-135, limits assumed). The assay can be described thus: ELISA. The method, boiled down:
(§1)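 Binding signal was read by ELISA after ACVR2A-specific monoclonal antibodies were tested against human ACVR2A and mouse ACVR2A, with human Fc as the negative control.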
For orientation: ELISA stands for enzyme-linked immunosorbent assay.
As to B1, the optical density amounted to 2.72 OD.

With B2, the optical density was found to be 2.83 OD.

In turn, B3 displayed an optical density of 2.32 OD.

B4 returned an optical density of 2.11 OD.

B5 gave an optical density of 2.74 OD.

B6 came in with an optical density of 2.04 OD.

On to B7, for which the optical density was 1.86 OD.

B8 displayed an optical density of 2.43 OD.

Molecule B9 had an optical density of 2.77 OD.

As to B10, the optical density came to 2.98 OD.

B11 had an optical density of 2.52 OD.

With B12, the optical density worked out at 2.78 OD.

Consider B13, for which the optical density was found to be 2.51 OD.

The molecule B14 gave an optical density of 2.1 OD.

For the molecule B15, the optical density stood at 2.82 OD.

The molecule B16 gave an optical density of 2.21 OD.

In the case of B17, the optical density was 2.36 OD.

In turn, B18 displayed an optical density of 2.57 OD.

As for B19, the optical density stood at 2 OD.

B20 displayed an optical density of 2.47 OD.

B21 yielded an optical density of 2.77 OD.

Turning to B22, the optical density was found to be 2.19 OD.

Molecule B23 showed an optical density of 2.67 OD.

B24 had an optical density of 2.63 OD.

For the molecule B25, the optical density amounted to 2.46 OD.

In turn, B26 yielded an optical density of 2.54 OD.

In turn, B27 had an optical density of 2.69 OD.

B28 registered an optical density of 2.45 OD.

As for B29, the optical density was 2.37 OD.

As to B30, the optical density was 2.83 OD.

B31 came in with an optical density of 2.09 OD.

The target in the next assay is T1, human ACVR2A (human, UniProt P27037 20-135, limits assumed).
T1 construct: also called activin receptor, type II A
T1 sequence (P27037 20-135 limits assumed): as the sequence (P27038 20-135 limits assumed) above, with R20K, I73V counted along it
The assay is described as follows: ELISA. The method, boiled down: as §1
Consider B1, for which the optical density stood at 2.69 OD.

Molecule B2 registered an optical density of 2.71 OD.

For the molecule B3, the optical density was found to be 2.16 OD.

B4 showed an optical density of 2.15 OD.

In the case of B5, the optical density came out at 2.57 OD.

With B6, the optical density amounted to 2.01 OD.

In turn, B7 had an optical density of 1.68 OD.

B8: the optical density was 2.42 OD.

For the molecule B9, the optical density was determined as 2.41 OD.

B10 yielded an optical density of 2.77 OD.

For the molecule B11, the optical density was 2.25 OD.

As for B12, the optical density worked out at 3.01 OD.

For the molecule B13, the optical density turned out to be 2.12 OD.

In turn, B14 returned an optical density of 2.06 OD.

In turn, B15 registered an optical density of 2.68 OD.

In the case of B16, the optical density was 2.05 OD.

For the molecule B17, the optical density stood at 2.21 OD.

In turn, B18 registered an optical density of 2.34 OD.

Take B19: the optical density came to 1.97 OD.

For B20, the optical density was found to be 2.27 OD.

B21: the optical density was found to be 2.79 OD.

B22 came in with an optical density of 2.08 OD.

B23: the optical density came to 2.56 OD.

B24 returned an optical density of 2.59 OD.

In the case of B25, the optical density was found to be 2.34 OD.

Molecule B26 came in with an optical density of 2.4 OD.

B27 had an optical density of 2.82 OD.

On to B28, for which the optical density was found to be 2.58 OD.

Molecule B29 came in with an optical density of 2.04 OD.

For the molecule B30, the optical density is 2.69 OD.

Regarding B31, the optical density worked out at 2.06 OD.

A further assay concerns the target T2, biotinylated goat anti-human kappa light chain.
T2 construct: positive control of the ELISA
The assay is described as follows: ELISA, positive control. The method, boiled down:
as §1
As for B1, the optical density came out at 3.66 OD.

The molecule B2 gave an optical density of 3.59 OD.

B3 returned an optical density of 3.56 OD.

In turn, B4 yielded an optical density of 3.6 OD.

Turning to B5, the optical density worked out at 3.69 OD.

B6 gave an optical density of 3.35 OD.

Take B7: the optical density was determined as 3.14 OD.

In the case of B8, the optical density turned out to be 3.37 OD.

On to B9, for which the optical density was 3.44 OD.

Consider B10, for which the optical density is 3.48 OD.

Molecule B11 had an optical density of 3.28 OD.

For B12, the optical density amounted to 3.69 OD.

Consider B13, for which the optical density amounted to 3.5 OD.

The molecule B14 displayed an optical density of 3.58 OD.

In turn, B15 had an optical density of 3.41 OD.

Regarding B16, the optical density turned out to be 3.52 OD.

B17: the optical density was 3.42 OD.

Take B18: the optical density was found to be 3.36 OD.

In turn, B19 came in with an optical density of 3.35 OD.

For B20, the optical density came to 3.54 OD.

Molecule B21 showed an optical density of 3.71 OD.

B22 yielded an optical density of 3.54 OD.

B23 gave an optical density of 3.56 OD.

As to B24, the optical density was determined as 3.6 OD.

The molecule B25 displayed an optical density of 3.6 OD.

In turn, B26 yielded an optical density of 3.39 OD.

Molecule B27 came in with an optical density of 3.65 OD.

In the case of B28, the optical density was 3.44 OD.

On to B29, for which the optical density turned out to be 3.43 OD.

As to B30, the optical density is 3.52 OD.

The molecule B31 showed an optical density of 3.34 OD.
